Changes are numbered by the printed parent chain. Names may count otherwise.
B1: Bgl1D (uncultured microorganism; L115N/S28T) (protein)
chain: MSLFFTFNPLEIVPTRVIGVPNHYQNYTWCNFQNGDYPFIDGIDINLIYQVKVGIPIVVRLETVATIFNILIPHLSESERDYIKRVYDYLRLDGRTSQSSYFFGPVDSQKIGLINRKYFFEWSSQMTYECLSGKVRGIAAPDKLVSEMNEIYNELMKVFNGDVSNIVNIGVN
B2: Bgl1D (uncultured microorganism; F68L/I70M) (protein)
chain: B1 chain with T28S, F68L, I70M, N115L
B3: Bgl1D (uncultured microorganism; D44E/F68L/I70M/R91G/Y37H) (protein)
chain: B1 chain with T28S, Y37H, D44E, F68L, I70M, R91G, N115L
B4: Bgl1D (uncultured microorganism) (protein)
chain: B1 chain with T28S, N115L
B5: Bgl1D (uncultured microorganism; E154G/I57K/S28P) (protein)
chain: B1 chain with T28P, I57K, N115L, E154G

system: O=[N+]([O-])c1ccc(O[C@@H]2O[C@H](CO)[C@@H](O)[C@H](O)[C@H]2O)cc1; experiment: purified protein; details: pH 10.0, glycine-NaOH, 30 °C

Molecule	Km	Vmax	kcat	kcat/Km
Bgl1D (uncultured microorganism; E154G/I57K/S28P/W122G/Y82S)	1670 ± 120 µM	42.5 µmol/min/mg	55.8 s⁻¹	33400 M⁻¹ s⁻¹
Bgl1D (uncultured microorganism; K117N/L115Q/M148K/Q25L/S28T)	1740 ± 140 µM	37.5 µmol/min/mg	31.2 s⁻¹	17900 M⁻¹ s⁻¹
Bgl1D (uncultured microorganism; K117N/M148K/Q25L)	1250 ± 120 µM	21.7 µmol/min/mg	23.8 s⁻¹	14400 M⁻¹ s⁻¹

same assay, conditions: pH 10.0, glycine-NaOH, results text says 30 °C, methods say optimal temperatures of 30 and 50 °C

Molecule	Km	Vmax	kcat	kcat/Km
Bgl1D (uncultured microorganism; D44E/L115N/R91G/S28T/Y37H)	430 ± 40 µM	314 µmol/min/mg	242 s⁻¹	562000 M⁻¹ s⁻¹

substrate: O=[N+]([O-])c1ccc(O[C@@H]2O[C@H](CO)[C@@H](O)[C@H](O)[C@H]2O)cc1; experiment: purified protein; details: pH 10.0, glycine-NaOH, 30 °C; remark: another data set of the same source

Molecule	Km	Vmax	kcat	kcat/Km
B1	1010 ± 450 µM	26.3 µmol/min/mg	16.5 s⁻¹	16400 M⁻¹ s⁻¹
B2	530 ± 80 µM	25.8 µmol/min/mg	29.4 s⁻¹	55400 M⁻¹ s⁻¹
B3	470 ± 20 µM	154 µmol/min/mg	139 s⁻¹	296000 M⁻¹ s⁻¹
B4	540 ± 30 µM	20.1 µmol/min/mg	13.4 s⁻¹	24800 M⁻¹ s⁻¹
B5	1170 ± 50 µM	52.9 µmol/min/mg	48.1 s⁻¹	41100 M⁻¹ s⁻¹
